Laboratory results as given in US20260078416A1, “ORTHOGONAL METABOLIC FRAMEWORK FOR ONE-CARBON UTILIZATION” (Mojia Biotech Pte. Ltd., priority 2021, published 2026).

Experiments:
[1] = In vitro kinetic assay of purified HACS variants; substrate acetone; assay type: biochemical
Experimental: The kinetic assay was performed with a coupled reaction providing formyl-CoA from formate catalyzed by CoA transferase CaAbfT using acetyl-CoA as a CoA donor.
In vitro kinetic assay was comprised of 100 mM KPi pH 6.9, 10 mM MgCl2, 0.15 mM TPP, 2 mM acetyl-CoA, 1 μM CaAbfT, 0.25 μM HACS variants, and 20 mM sodium formate. Reactions were incubated at room temperature for 3 min to convert formate to formyl-CoA, and then specific concentration of aldehyde (specifically acetaldehyde or propionaldehyde here) was added to the reaction. After incubating another 3 min, 1/20 of the reaction volume of 10 M NaOH solution was added to terminate the reactions. After 30 min hydrolysis, 1/20 of the reaction volume of 10 N H2SO4 was added to neutralize the pH. Samples were centrifuged at 20817×g for 15 minutes and the supernatant analyzed by GC-MS as described below.
For this analysis, 0.15 of the reaction volume of internal standard methyl succinate was added to the samples. The resulting sample was extracted into 4 mL ethyl acetate by vigorous vortexing for 20 min. […] Samples were analyzed by GC (1 μL injection with a 20:1 split ratio) using helium as the carrier gas at a flowrate of 1.5 mL/min and the following temperature profile: initial 90° C. for 3 min; ramp at 15° C./min to 170° C.; ramp at 20° C./min to 300° C. and hold for 8 min. […]

[2] = In vitro condensation of methyl ketones with formyl-CoA using purified enzymes; assay type: biochemical; conditions: 100 mM methyl ketone, 20 mM formate, 30° C., 24 hours, GC-MS
Experimental: The formyl-CoA generation catalyzed by CoA transferase CaAbfT and condensation catalyzed by HACS JGI15 is identical to the examples described above (FIG. 38A).
The enzymes CoA transferase CaAbfT and HACS JG115 were overexpressed and purified as described above. In vitro purified enzyme reactions for condensation of methyl ketone and formyl-CoA were comprised of 100 mM KPi pH 6.9, 10 mM MgCl2, 0.15 mM TPP, 2 mM acetyl-CoA, 1 μM JGI15, 2 μM CaAbfT, 20 mM formate and 100 mM tested methyl ketones. Reactions were incubated at 30° C. for 24 hours unless otherwise specified.
For this analysis, samples containing acyl-CoAs were first treated with 1/20 of the reaction volume of 10 M NaOH solution was added to terminate the reactions. After 30 min hydrolysis, 1/20 of the reaction volume of 10 N H2SO4 was added to improve the efficiency of acid extraction. The resulting sample was extracted into 4 mL ethyl acetate by vigorous vortexing for 90 seconds. The organic phase was separated and evaporated to dryness under a stream of nitrogen. […] Samples were analyzed by GC (1 μL injection with a 20:1 split ratio) using helium as the carrier gas at a flowrate of 1.5 mL/min and the following temperature profile: initial 90° C. for 3 min; ramp at 15° C./min to 170° C.; ramp at 20° C./min to 300° C. and hold for 8 min. […]

B1: JGI15: HACS variant; GenBank HAK63664.1 (protein)
chain: MAKSEGKVNGATLMARALQQQGVQYMFGIVGFPVIPIAIAAQREGITYIGMRNEQSASYAAQAASYLTGRPQACLVVSGPGVVHALAGLANAQVNCWPMLLIGGASAIEQNGMGAFQEERQVLLASPLCKYAHQVERPERIPYYVEQAVRSALFGRPGAAYLDMPDDVILGEVEEAAVRPAATVGEPPRSLAPQENIEAALDALQSAKRPLVIVGKGMAWSRAENEVRQFIERTRLPFLATPMGKGVMPDDHPLSVGGARSHALQEADLVFLLGARFNWILHFGLPPRYSKDVRVIQLDLSAEEIGNNRQAEVALVGDGKAIVGQLNQALSSRQWFYPAETPWREAIAAKIAGNQAAVAPMIADNTSPMNYYRVYRDIAARLPRNAIIVGEGANTMDIGRTQMPNFEPRSRLDAGSYGTMGIGLGFAVAAAAVHPGRPVIAVQGDSAFGFSGMEFETAARYGMPIKVIILNNGGIGMGSPAPRDGQPGMPHALSHDARYERIAEAFGGAGFYVTDSAELGPALDAAMAFKGPAIVNIKIAATADRKPQQFNWHG
- Kcat, app [1]: 6.8 s⁻¹
- condensation of methyl ketones with formyl-CoA [2]: could catalyze the condensation of tested ketones
